These results are taken from patent publication US20110293610A1 (published 2011).

Substitutions are numbered along the chain they refer to.

Assay [1] concerns the target T1, biotinylated B Lymphocyte Stimulator, soluble form (human, UniProt Q9Y275 134-285, biotinylated with NHS-biotin, molar ratio 20:1 biotin:protein).
T1 construct: also called bio-B Lymphocyte Stimulator; free B Lymphocyte Stimulator
The assay can be described thus: phage scFv, receptor binding inhibition on IM9 cells. How it is done: Fifty-five μl of each appropriate phage supernatant was added to each well and the final volume in each well was 65 μl. Plates were then incubated at room temperature for 30 minutes.
Plates were washed three times in PBST and three times in PBS, tapped dry and 50 μl of streptavidin-Delfia (Wallac) was added to each well at 1:1000 dilution in the Manufacturer's assay buffer. The plates were then incubated at room temperature for 1 hour and washed six times in Delfia wash solution (Wallac). After tapping the plates dry, 100 μl per well of Delfia enhancement solution (Wallac) was added. The plates were gently tapped to encourage micelle formation, incubated at room temperature for 10 minutes, and fluorescence read on a Wallac 1420 workstation at […].

In the next assay the target is T2, TNF-alpha (human, UniProt P01375 77-233).
T2 construct: also called TNFα; TNF-α
T2 sequence (P01375 77-233 limits assumed): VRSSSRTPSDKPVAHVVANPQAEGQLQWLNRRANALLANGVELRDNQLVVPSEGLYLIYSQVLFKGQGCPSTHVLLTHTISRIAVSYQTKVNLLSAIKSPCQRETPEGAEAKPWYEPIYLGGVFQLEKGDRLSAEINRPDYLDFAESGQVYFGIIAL
The assay can be described thus: phage ELISA. (In general: ELISA stands for enzyme-linked immunosorbent assay.)

For the next assay, the target named is T3, Fas ligand (human, UniProt P48023 134-281, limits assumed).
T3 sequence (looked up): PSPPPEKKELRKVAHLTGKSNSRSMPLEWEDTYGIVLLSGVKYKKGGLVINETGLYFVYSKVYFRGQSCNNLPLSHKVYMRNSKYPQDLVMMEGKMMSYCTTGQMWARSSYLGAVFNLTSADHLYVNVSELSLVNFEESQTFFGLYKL
The assay can be described thus: phage ELISA.

Assay [2] concerns the target T4, membrane-bound B Lymphocyte Stimulator on U937 plasma membrane preparations (human, UniProt Q9Y275 1-285).
T4 construct: Natural protein in plasma membrane fractions of the human cell line U937 coated on ELISA plates; also called U937 plasma membranes; U937 membranes
Description: phage ELISA.

The next assay deals with T5, TNF-beta (human, UniProt P01374 35-205).
T5 construct: also called TNFβ; Tumour Necrosis Factor-beta
T5 sequence (looked up): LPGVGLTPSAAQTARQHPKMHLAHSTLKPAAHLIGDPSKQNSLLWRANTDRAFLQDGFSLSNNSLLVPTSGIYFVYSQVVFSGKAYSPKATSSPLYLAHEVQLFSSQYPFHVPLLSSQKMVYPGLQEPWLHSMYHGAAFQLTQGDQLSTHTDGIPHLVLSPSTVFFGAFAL
The assay can be described thus: phage ELISA.

In a further assay the target is T6, TRAIL (human, UniProt P50591 114-281).
T6 construct: also called TNF-related apoptosis inducing ligand
T6 sequence (P50591 114-281 limits assumed): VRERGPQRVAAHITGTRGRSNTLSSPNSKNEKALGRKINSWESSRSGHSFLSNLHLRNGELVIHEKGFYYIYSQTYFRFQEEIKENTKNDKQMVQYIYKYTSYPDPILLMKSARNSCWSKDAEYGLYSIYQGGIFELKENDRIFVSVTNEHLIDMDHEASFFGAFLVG
The assay can be described thus: phage ELISA.

Assay [3] deals with T7, B Lymphocyte Stimulator, soluble form (human) (human, UniProt Q9Y275 134-285, biotinylated with NHS-biotin where used as biotinylated B Lymphocyte Stimulator).
T7 construct: Coated on plastic, captured on streptavidin plates, amine-coupled to a CM5 chip or free in solution, depending on the assay; also called BLyS; immobilized B Lymphocyte Stimulator
The assay can be described thus: phage competition ELISA.

B1: I008C02 (scFv)
scFv: AVQLQESGPGLVKPSETLSLTCSVSGASMTTNKFYWSWIRQPPGKGLEWIGNINYSKSTNYNPSLKSRITISVDTSKNQLSLKLNSVTAADTAVYYCARHVRDYDILTGYYRGHYFDYWGQGTMVTVSSGGGGSGGGGSGGGGSQSVLTQPASVSGSPGQSITISCTGTSSDVGGYNYVSWYQQHPGKAPKLMIYEGSKRPSGVSNRFSGSKSGNTASLTISGLQAEDEADYYCSSYTTRSTRVFGGGTKLTVLG
As for B1, in assay [1], the binding result is reported as “binds”.

B2: I031F09 (scFv)
scFv: QVQLVQSGAEVKKPGASVKVSCTVSGDSFSRHGISWVRQAPGQGLEWMGWISVYNGDTKYAQKVQGRVTMTTDTSTNTVYMELRRLRSDDTAVYYCARDEGRDLLTGYYWPNFFDSWGRGTLVTVSSGGGGSGGGGSGGGGSALSYVLTQPPSASGTPGQRVTISCSGSRPNIGGNTVNWYQQLPGAAPKLLIYSNSQRPSGVPDRFSGSKYGTSASLAISGLQSDDEADYYCAAWDDSLTGPVFGGGTKLTVLG
Take B2: the binding result with TNF-alpha is “no binding”; with Fas ligand, “no binding”; in assay [2], “binds”; in the assay with TNF-beta, “no binding”; with TRAIL, “no binding”; in assay [3], “binds”.

B3: I031G11 (scFv)
scFv: B2 scFv with A154V, R161K
For the molecule B3, the binding result is “no binding” with TNF-alpha; “no binding” with Fas ligand; “binds” in assay [2]; “no binding” in the assay with TNF-beta; “no binding” in the assay with TRAIL; “binds” in assay [3].

B4: I008C03 (scFv)
scFv: QMQLVRSGGGVVQPGRSLRLSCAASGFTFSSYGMHWVRQAPGKGLEWVSVTYSGGNTNYADSVRGRFTISRDNSKNTLYLQMNSLRAEDTAVYYCAREGSYDILTGYYVGVGRMDVWGKGTLVTVSSGGGGSGGGGSGGGGSSELTQDPAVSVALGQTVRITCQGDSLRSYYTNWFQQKPGQAPLLVVYAKNKRPSGIPDRFSGSSSGNTASLTITGAQAEDEADYYCNSRDSSGNHVVFGGGTKLTVLG
As for B4, in assay [1], the binding result is on record as “binds”.

B5: I028A06 (scFv)
scFv: QVQLVESGGGLIQPGGSLRLSCAASGFSFGSYAMSWIRQAPGKGLEWVSTSTGRGGSTYYADSVKGRFTISRDNAKNSLYLQMNSLRAEDAAVYYCARGGDYDILTGLYYYGMDVWGKGTMVTVSSGGGGSGGGGSGGGGSSYVLTQPPSVSGTPGQRVTISCSGGRSNIGSNTVKWYQQLPGTAPKLLIYGNDQRPSGVPDRFSGSKSGTSASLAITGVQAEDEADYYCQSYDSSLRGSRVFGTGTKVTVLG
Consider B5, for which the binding result in assay [1] is recorded as “binds”.

B6: I050B11 (scFv)
scFv: QVQLVQSGVEVKKPGASVKVSCKASGYTFSNHGISWVRQAPGQGLEWVGWISGHDDSTKYAQKFQGRVTMTADTSTSTAYIELRSLKSDDTAVYYCARPFYDTLTSYVFQYFDHWGQGTMVTVSSGGGGSGGGGSGGGGSALETTLTQSPDTLSLSPGERATLSCRASQSVTRGWVAWYQQKPGQAPRLLMYGTSRRATGVPDRFSGSESGTDFTLTISRLEPEDFAVYYCQQYATSPRTFGQGTRLEIKR
As for B6, the binding result is “no binding” with TNF-alpha; “no binding” in the assay with Fas ligand; “binds” in assay [2]; “no binding” in the assay with TNF-beta; “no binding” with TRAIL; “binds” in assay [3].

B7: I061H01 (scFv)
scFv: QVQLVQSGGGLVKPGGSLRLSCAASGFTFSNAWMSWVRQAPGKGLQWVGRIKSKTDGGTTDYAAPVKGRFTISRDDSKNTLYLQMNSLKTEDTAVYYCTTFNPTYDILTGYYIGGYFQHWGQGTMVTVSSGGGGSGGGGSGGGGSQSVLTQPASVSGSPGQSITISCTGTSSDVGGYNYVSWYQQHPGKAPKLMIYEGSKRPSGVSNRFSGSKSGNTASLTISGLQAEDEADYYCSSYTTRSTRVFGGGTQLTVLG
notes: also called 1061H01
As for B7, the binding result in assay [1] is listed as “binds”.

B8: I061E07 (scFv)
scFv: QVQLQQSGAEVKKTGASVKVSCKASGYIFADYYVHWVRQAAGQGLEWMGWINPNTGSTKYAQKFQDRVTMTRDTSIKTVYMELRRLRSDDTALYYCARATYDPLTGYSFDGFDIWGKGTMVTVSSGGGGSGGGGSGGGGSQSVLTQPPSASGTPGQRVTISCSGSSSNIGSNTVNWYQRLPGAAPQLLIYNNDQRPSGIPDRFSGSKSGTSGSLVISGLQSEDEADYYCASWDDSLNGRVFGGGTKLTVLG
With B8, in assay [1], the binding result is “binds”.

B9: I051C04 (scFv)
scFv: QVQLQQSGAEVKKPGSSVKVSCRTSGGTFSNYGLSWVRQAPGQGLEWMGGVIPISSTIKYGQKFQDRLTIAADDLTNTTFMELSSLRPEDTAVYYCARAATTSQKHNKYAYYFYGMDVWGQGTMVTVSSGGGGSGGGGSGGGGSAQSALTQPASVSGSPGQSITISCTGTSSDVGGYNYVSWYQQHPGKAPKLMIYEVSNRPSGVSNRFSGSKSGNTASLTISGLQAEDEADYYCSSYTSSSTLVFGGGTKVTVLG
notes: also called 1051C04
With B9, the binding result with TNF-alpha was “no binding”; in the assay with Fas ligand, “no binding”; in assay [2], “binds”; with TNF-beta, “no binding”; in the assay with TRAIL, “no binding”; in assay [3], “binds”.

B10: I029D07 (scFv)
scFv: QVQLQQSGAEVKKPGSSVKVSCKASGYTFTKYTMHWVRQAPGQGPEWMGWINGGSGDTKYSRKFQGRVTITKDTSASAAYMELSSLGSEDTALYYCARATYDPLTGYSFDGFDIWGQGTLVTVSSGGGGSGGGGSGGGGSQSVLTQPASVSGSPGQSITISCTGTSSDVGGYNYVSWYQQHPGKAPKLMIYDVSKRPSGVPDRFSGSKSGNTASLTISGLQAEDEGDYYCSSYAGPSRVFGGGTKVEIKR
On to B10, for which the binding result in assay [1] is “binds”.

B11: I031C03 (scFv)
scFv: QMQLVQSGAEVRKPGSSVKVSCKASGGSFSSHVFSWVRQAPGQGLEWVGGITPKFATPNYAQKFQHRVTITADELTRTVFMDLSGLRSEDTAVYYCARGYDSSAFRAFDIWGQGTLVTVSSGGGGSGGGGSGGGGSAQSVLTQPPSVSAAPGQKVTISCSGSSSNIGNNYVSWYQQFPGTAPKLLIYDNNNRPSGVPDRFSGSKSGTSATLGITGLQTGDEADYYCGTWDRSLSVVVFGGGTKVTVLG
As to B11, the binding result in assay [1] was “binds”.

B12: I022E02 (scFv)
scFv: QVQLVQSGAEVKKPGASVMVSCKASGYTFSTYAVHWVRQAPGQGLEWMGRINAGNGYTKYSQKFQGRVTITKDTSASAAYMELSSLGSEDTALYYCARATYDPLTGYSFDGLDIWGKGTMVTVSSGGGGSGGGGSGGGGSQSVLTQPASVSGSPGQSITISCTGTSSDVGGYNYVSWYQQHPGKAPKLMIYEGSKRPSGVSNRFSGSKSGNTASLTISGLQAEDEADYYCSSYTTRSTRVFGGGTKLTVLG
Turning to B12, the binding result in assay [1] is listed as “binds”.

B13: I007H08 (scFv)
scFv: QVQLQQSGPGLVKPSQILSLTCAISGDSVASNGAAWNWIRQSPSRGLEWLGRTYYRSKWYVDYAVSVKSRITINPDTSKNQFSLQLNSVTPEDTAVYYCARDRYDILTGYYYYGMDVWGQGTMVTVSSGGGGSGGGGSGGGGSQSALTQPASVSGSRGQSITISCTGTTGDVGGYDYVSWYQQHPGKAPKLLIYGNSNRPSGVPDRFSASKSGNTASLTISGLQAEDEADYFCNTYAPPGIIMFGGGTKLTVLG
For B13, the binding result in assay [1] was “binds”.

B14: I008A11 (scFv)
scFv: B13 scFv with N234S
With B14, the binding result in assay [1] is “binds”.

B15: I050A12 (scFv)
scFv: EVQLVQSGAEVKKPGSSVKVSCKASGDTFSHYAINWVRQAPGQGLEWMGGIIPTFNAVKYAQKFQGRATITADGSTSTAYMELNSLRSEDTAVYYCATAPYDLLTHYFHYFDYWGQGTMVTVSSGGGGSGGGGSGGGGSALSSELTQDPAVSVTLGQTVRITCQGDSLRSYYPSWYQQKPGQAPVLVIYPKNIRPSGIPDRFSGSSSGNTASLTITGAQAEDEADYYCNSRASSGNHYVFATGTKLTVLG
As for B15, the binding result with TNF-alpha is reported as “no binding”; in the assay with Fas ligand it was “no binding”; in assay [2], “binds”; in the assay with TNF-beta it was “no binding”; with TRAIL, “no binding”; in assay [3] it was “binds”.
